Assay [1] concerns the target integrin αvβ3 (Homo sapiens, UniProt P05106+P06756). Description: Human FP direct binding assay. The conditions noted are these: Table 3; fluorescently modified peptides; Integrin aVb3. The protocol:
(§1) Affinity of selected fluorescently modified peptides of the invention for integrin αvβ3 (Kd) (and αvβ5 to test for selectivity) was determined using a human direct binding assay analogous to that described in Schottelius et al. (2009) Acc. Chem. Res. 42, 969-980.

In assay [2] the target is T1, integrin αvβ3 (human, UniProt P06756 31-992; P05106 27-718).
T1 construct: also called Integrin aVb3
As to the kind of experiment: Human FP Direct binding. How it is done:
as §1

Starred links: 1 amine or outer side, 2 acyl side, 3 side chain; linkers in the order of their positions; H or OH if unused. Positions of bridges follow the written chain, without caps; N, C: chain ends. Non-standard residues stand in square brackets, D forms with d. No end group written: not given here. *: point of attachment. FITC = O=C1OC2(c3ccc(O)cc3Oc3cc(O)ccc32)c2ccc(NC(=S)*)cc21; TATA = O=C(CC[*:1])N1CN(C(=O)CC[*:2])CN(C(=O)CC[*:3])C1; Ahx = NCCCCCC(=O)O; Fl = fluorescein; Sar = CNCC(=O)O

T1 sequence (P06756 31-992, chain 1 of 2): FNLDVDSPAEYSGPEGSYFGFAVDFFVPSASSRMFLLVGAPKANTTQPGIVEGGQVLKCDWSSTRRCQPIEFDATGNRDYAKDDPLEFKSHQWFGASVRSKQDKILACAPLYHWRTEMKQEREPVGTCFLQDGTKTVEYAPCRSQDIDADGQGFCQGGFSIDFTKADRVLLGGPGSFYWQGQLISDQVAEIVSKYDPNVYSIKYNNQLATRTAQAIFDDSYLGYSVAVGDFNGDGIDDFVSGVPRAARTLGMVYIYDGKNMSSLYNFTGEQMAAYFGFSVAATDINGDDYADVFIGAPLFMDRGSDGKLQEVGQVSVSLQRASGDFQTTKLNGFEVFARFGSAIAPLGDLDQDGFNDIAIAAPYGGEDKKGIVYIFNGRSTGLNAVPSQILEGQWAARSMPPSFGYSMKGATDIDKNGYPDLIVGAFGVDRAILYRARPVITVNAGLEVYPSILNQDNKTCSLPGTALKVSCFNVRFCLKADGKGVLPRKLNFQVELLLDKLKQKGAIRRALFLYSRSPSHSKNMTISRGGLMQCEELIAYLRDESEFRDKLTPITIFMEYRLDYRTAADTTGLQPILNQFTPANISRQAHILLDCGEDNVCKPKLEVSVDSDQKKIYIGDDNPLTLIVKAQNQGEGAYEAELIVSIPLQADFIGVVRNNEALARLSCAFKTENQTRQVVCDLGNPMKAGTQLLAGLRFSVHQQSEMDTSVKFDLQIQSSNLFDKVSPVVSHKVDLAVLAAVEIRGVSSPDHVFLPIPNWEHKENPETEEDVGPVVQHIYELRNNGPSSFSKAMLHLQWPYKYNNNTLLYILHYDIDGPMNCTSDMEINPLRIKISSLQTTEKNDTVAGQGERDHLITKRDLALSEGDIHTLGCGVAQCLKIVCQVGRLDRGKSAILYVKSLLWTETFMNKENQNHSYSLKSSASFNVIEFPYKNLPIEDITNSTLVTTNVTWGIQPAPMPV
T1 sequence (P05106 27-718, chain 2 of 2): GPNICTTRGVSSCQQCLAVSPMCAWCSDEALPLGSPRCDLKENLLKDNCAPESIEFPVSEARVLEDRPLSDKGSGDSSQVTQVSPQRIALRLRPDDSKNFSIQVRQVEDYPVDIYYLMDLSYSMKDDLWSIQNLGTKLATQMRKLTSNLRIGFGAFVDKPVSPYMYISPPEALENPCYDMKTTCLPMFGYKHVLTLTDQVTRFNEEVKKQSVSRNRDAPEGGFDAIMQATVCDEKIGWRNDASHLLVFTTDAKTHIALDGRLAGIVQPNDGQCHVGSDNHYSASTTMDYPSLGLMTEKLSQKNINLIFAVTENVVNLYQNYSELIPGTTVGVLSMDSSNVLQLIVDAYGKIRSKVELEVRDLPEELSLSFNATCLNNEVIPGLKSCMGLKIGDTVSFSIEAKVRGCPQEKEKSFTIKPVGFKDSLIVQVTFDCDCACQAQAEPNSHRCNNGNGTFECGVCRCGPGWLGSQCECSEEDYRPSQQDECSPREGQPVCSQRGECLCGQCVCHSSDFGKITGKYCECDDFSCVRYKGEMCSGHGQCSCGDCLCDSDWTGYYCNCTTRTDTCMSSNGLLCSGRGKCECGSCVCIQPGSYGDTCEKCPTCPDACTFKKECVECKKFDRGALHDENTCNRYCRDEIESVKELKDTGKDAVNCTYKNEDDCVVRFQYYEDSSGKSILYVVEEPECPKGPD
Chain of integrin αvβ3 (Homo sapiens, UniProt P05106+P06756) (P06756 31-889 limits assumed): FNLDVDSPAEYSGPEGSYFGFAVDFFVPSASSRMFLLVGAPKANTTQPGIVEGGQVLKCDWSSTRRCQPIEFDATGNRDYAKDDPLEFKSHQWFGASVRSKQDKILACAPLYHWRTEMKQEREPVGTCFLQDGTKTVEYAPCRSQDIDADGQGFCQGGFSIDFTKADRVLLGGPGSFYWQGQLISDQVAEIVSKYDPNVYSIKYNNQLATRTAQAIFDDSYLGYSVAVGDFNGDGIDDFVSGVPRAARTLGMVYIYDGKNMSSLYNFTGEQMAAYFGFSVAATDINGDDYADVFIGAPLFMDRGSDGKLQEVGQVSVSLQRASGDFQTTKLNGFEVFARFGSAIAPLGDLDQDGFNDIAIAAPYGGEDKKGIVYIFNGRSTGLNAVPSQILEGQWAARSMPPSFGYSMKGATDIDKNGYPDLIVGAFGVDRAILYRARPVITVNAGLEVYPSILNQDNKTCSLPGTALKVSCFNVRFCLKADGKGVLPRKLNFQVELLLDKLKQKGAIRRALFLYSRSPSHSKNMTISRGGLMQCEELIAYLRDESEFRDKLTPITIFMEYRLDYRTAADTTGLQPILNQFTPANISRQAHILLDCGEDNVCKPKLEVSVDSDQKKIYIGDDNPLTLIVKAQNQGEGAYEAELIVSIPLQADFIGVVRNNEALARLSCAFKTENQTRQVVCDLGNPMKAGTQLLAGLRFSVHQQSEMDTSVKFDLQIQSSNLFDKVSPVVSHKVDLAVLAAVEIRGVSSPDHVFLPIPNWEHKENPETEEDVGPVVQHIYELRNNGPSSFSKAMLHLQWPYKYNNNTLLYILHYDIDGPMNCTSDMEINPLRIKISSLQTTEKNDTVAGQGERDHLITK
Chain of integrin αvβ3 (Homo sapiens, UniProt P05106+P06756) (P06756 891-1048 partner limits assumed): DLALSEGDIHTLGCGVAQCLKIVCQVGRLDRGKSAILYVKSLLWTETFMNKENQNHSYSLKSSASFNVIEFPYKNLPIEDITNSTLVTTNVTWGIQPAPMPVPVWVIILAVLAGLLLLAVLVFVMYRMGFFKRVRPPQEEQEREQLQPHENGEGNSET
Chain of integrin αvβ3 (Homo sapiens, UniProt P05106+P06756) (P05106 27-788): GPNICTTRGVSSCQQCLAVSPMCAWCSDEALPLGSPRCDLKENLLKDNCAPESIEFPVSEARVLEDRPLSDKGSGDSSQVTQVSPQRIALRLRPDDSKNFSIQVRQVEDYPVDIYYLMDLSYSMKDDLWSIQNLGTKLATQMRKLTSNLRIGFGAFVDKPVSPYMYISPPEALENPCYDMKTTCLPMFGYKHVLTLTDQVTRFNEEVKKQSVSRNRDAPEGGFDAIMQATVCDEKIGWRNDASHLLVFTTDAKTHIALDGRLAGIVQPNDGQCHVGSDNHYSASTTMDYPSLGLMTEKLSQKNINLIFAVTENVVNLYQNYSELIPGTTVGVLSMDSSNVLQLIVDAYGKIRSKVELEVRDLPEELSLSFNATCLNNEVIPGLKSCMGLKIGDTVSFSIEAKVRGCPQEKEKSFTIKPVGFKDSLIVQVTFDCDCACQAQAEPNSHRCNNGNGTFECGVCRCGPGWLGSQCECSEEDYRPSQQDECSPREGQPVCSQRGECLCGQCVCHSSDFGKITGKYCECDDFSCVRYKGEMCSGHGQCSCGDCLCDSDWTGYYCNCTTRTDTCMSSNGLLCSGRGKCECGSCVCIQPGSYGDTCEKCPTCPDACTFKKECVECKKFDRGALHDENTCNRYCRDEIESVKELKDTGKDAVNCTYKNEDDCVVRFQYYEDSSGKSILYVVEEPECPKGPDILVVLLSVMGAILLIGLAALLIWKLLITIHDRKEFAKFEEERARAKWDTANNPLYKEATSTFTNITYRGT

By Kd is commonly meant the free concentration of one partner at which half of the binding sites on the other are occupied at equilibrium, for simple one-to-one binding. The low end stands for a tighter complex, the high end for a looser complex. In assay [1], {FITC-Ahx}-GRGSSP [BCY7766] showed a Kd of 1.15 nM.

B1: BCY7508 (peptide)
peptide: Ac-CPHIGRTDCPPCA[Sar][Sar][Sar][Sar][Sar][Sar]K(Fl)
modifications: linker 1-9-12 via TATA
As for B1, in assay [2], the Kd was 0.05 nM.

B2: BCY7766 (peptide)
peptide: {FITC-Ahx}-GRGSSP
notes: also called FITC-Ahx-GRGSSP
For the molecule B2, the Kd in assay [2] came out at 1.15 nM. Compared with the last molecule, the Kd is about 23-fold higher.
